Measurements as given in PMC11946513 (The Journal of Biological Chemistry, 2025).

Target: T1, KAT6A MYST domain (KAT6A 501-784) (human, UniProt Q92794 501-784, autoacetylated K604 (as seen in the structure))
T1 construct: KAT6A (MOZ), human, acetyltransferase (MYST) domain, residues 501-784, NCBI NP_006757.2; also called pHis-MYST domain; not shown: polyhistidine, N-terminal, cleaved
Experiment: crystal structure; KAT6A MYST domain at 8 mg/ml complexed with H3K14-CoA in a 1:10 M ratio, 4 h at 4 °C; sitting drop, 1.25 M NH4SO4, 0.28 M NaCl, 0.1 M HEPES pH 6.4, 21 °C
Settings: both partners purified

T1 sequence (Q92794 501-784): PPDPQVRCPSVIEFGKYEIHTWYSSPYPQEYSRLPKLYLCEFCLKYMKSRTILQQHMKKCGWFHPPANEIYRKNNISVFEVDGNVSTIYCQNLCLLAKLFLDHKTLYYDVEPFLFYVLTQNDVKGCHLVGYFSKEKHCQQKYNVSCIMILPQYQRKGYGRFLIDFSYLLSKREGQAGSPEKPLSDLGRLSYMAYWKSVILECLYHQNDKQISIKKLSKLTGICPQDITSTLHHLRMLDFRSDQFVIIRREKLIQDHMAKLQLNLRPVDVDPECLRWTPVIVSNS

binding result: binds
B1: H3K14-CoA bisubstrate inhibitor (peptide)
peptide: QTARKSTGGKAPRKQLATK
modifications: ε-amino group of K14 covalently attached to CoA through a non-native acetyl bridge; 6-aminohexanoic acid (Ahx) linker on the N-terminus
notes: histone H3 tail, residues 5-23; Made on Rink Amide resin, so the C-terminus is probably an amide (surmised); Only residues 10-17 are resolved in the structure; also called peptidyl-CoA analogue; H3 (5-23) with K14 attached to CoA; source: synthetic peptide (manual Fmoc synthesis on Nova PEG Rink Amide, HPLC purified, coupled to Coenzyme A)
